Measurements published in patent publication US20080267953A1 (Kyowa Kirin, published 2008).
Positions count from the first letter of the chain named.

B1: anti-PERP humanized antibody HV4LV4 (antibody, V domains shown)
VH: QVQLQESGPGLVKPSQTLSLTCTVSGFSISTEYAWNWIRQFPGKGLEWIGYIGYTGRTNYAPSLKSRITISRDTSKNQFSLQLSSVTAEDTATYYCTRMDYWGQGTLVTVSS
VL: DIQMTQSPSSLSASVGDRVTITCSASSSVSYMHWFQQKPGKAPKLWIYSTSNLASGVPSRFSGSGSGTDYTLTISSMQPEDFATYYCQQRSSYPPTFGQGTKVEIK
B2: anti-PERP humanized antibody HV8LV0 (antibody, V domains shown)
VH: B1 VH with S30T, K44N, G45R, I49M
VL: B1 VL with F35Y, W46L, Y70F, M77L
B3: anti-PERP humanized antibody HV8LV7 (antibody, V domains shown)
VH: B1 VH with S30T, K44N, G45R, I49M
VL: B1 VL with Q3V, T5I, A42S
B4: anti-PERP humanized antibody HV4LV7 (antibody, V domains shown)
VH: B1 VH
VL: B1 VL with Q3V, T5I, A42S
B5: anti-PERP humanized antibody HV4LV3 (antibody, V domains shown)
VH: B1 VH
VL: B1 VL with F35Y
B6: anti-PERP CDR-modified antibody ver.1 (antibody, V domains shown)
VH: DVQLQESGPGLVKPSQSLSLTCTVTGFSITTEYAWNWIRQFPGNRLEWMGYIGYTGRTSYSPSLKSRISITRDTSKNQFFLQLNSVTTEDTATYYCTRMDYWGQGTSVTVSS
VL: QIVLIQSPVIMSASPGEKVTITCSASSSVSYMHWFQQKPGTSPKLWIYSTSNLASGVPARFSGSGSGTSYSLTISRMEAEDAATYYCQQRSSYPPTFGAGTKLELK
notes: Human chimeric antibody of IgG class; also called pKANTEX3411 CDR v1
B7: anti-PERP mouse monoclonal antibody KM3411 (hybridoma FERM BP-8643) (antibody, V domains shown)
VH: B6 VH with S59N
VL: B6 VL
notes: Mouse IgG1; also called anti-PERP mouse antibody KM3411
B8: anti-PERP CDR-modified antibody ver.2 (antibody, V domains shown)
VH: B6 VH with S59G
VL: B6 VL
notes: Human chimeric antibody of IgG class; also called pKANTEX3411 CDR v2
B9: anti-PERP CDR-modified antibody ver.6 (antibody, V domains shown)
VH: B6 VH with S59G, S61A
VL: B6 VL
notes: Human chimeric antibody of IgG class; also called pKANTEX3411 CDR v6
B10: anti-PERP CDR-modified antibody ver.5 (antibody, V domains shown)
VH: B6 VH with S61A
VL: B6 VL
notes: Human chimeric antibody of IgG class; also called pKANTEX3411 CDR v5
B11: anti-PERP CDR-modified antibody ver.3 (antibody, V domains shown)
VH: B6 VH with S59Y
VL: B6 VL
notes: Human chimeric antibody of IgG class; also called pKANTEX3411 CDR v3

Key:
[1] = target: T1, human PERP with C-terminal myc-His tag expressed on CHO/DG44 cells from plasmid pcPERPmH (human, UniProt Q96FX8 1-193); experiment: flow cytometry on CHO/PERP (KC1359)
T1 construct: The gene was cloned from plasmid HEMBA 1006335 (GenBank AK 074585); also called PERP/CHO cell; CHO/hPERP
Description: (§1) Binding activity of an anti-PERP humanized antibody having no consensus sequence of an N-linked sugar chain purified in (5) of Example 3 to CHO/PERP (KC1359) expressing a polypeptide encoded by the PERP gene, or PC9 cells used in (1) of Example 1 was measured using a fluorescent antibody technique as described below.
(§2) CHO/PERP or PC9 cells (2 to 3×10⁵ per well) were dispensed in a 96-well U-shaped plate, a modified antibody wherein the anti-PERP humanized antibody having no consensus sequence of an N-linked sugar chain was diluted in eight stages in a 2-fold dilution starting from 10 μg/ml using a buffer for FCM (1% BSA-PBS, 0.02% EDTA and 0.05% NaN₃) was dispensed in an amount of 100 μL/well or the modified antibody diluted in eight stages in a 5-fold dilution starting from 10 μg/ml and a reaction was carried out on ice for 30 minutes. After washing with a buffer for FCM once, a solution in which a PE-labeled anti-human IgG (H+ L) antibody (manufactured by Beckmann-Coulter) diluted 50-fold with a buffer for FCM was added thereto in an amount of 100 μL/well. After the mixture was allowed to react for 30 minutes on ice protecting from the light, it was washed with a buffer for FCM twice and fluorescence intensity was measured using a flow cytometer. As a positive control, the anti-PERP human chimeric antibody KM3481 described in Reference Example 2 or the anti-PERP human chimeric antibody KM3821 (KM3821) having no consensus sequence of an N-linked sugar chain produced in Example 1 was used.

[2] = target: T2, polypeptide encoded by the human PERP gene, endogenously expressed on human cancer cell lines (PC9 / PC-9, … (human, UniProt Q96FX8 1-193)); experiment: flow cytometry on PC-9 cells
T2 construct: Four-transmembrane protein of 193 amino acids; also called hPERP; THW
Description: as §1
as §2, with “As a positive control, the anti-PERP human chimeric antibody KM3481 described in Reference Example 2 or the anti-PERP human chimeric antibody KM3821 (KM3821) having no consensus sequence of an N-linked sugar chain produced in Example 1 was used.” left out

[3] = target: T2, polypeptide encoded by the human PERP …; experiment: flow cytometry on PC9 cells expressing PERP
[4] = target: T1, human PERP with C-terminal myc-His tag …; experiment: FMAT fluorescent cell staining, hybridoma culture supernatant, PERP/CHO against CHO/DG44 cells
Description: With regard to the cells for the assay, PERP/CHO cells and CHO/DG44 cells produced in (1) of Reference Example 1 were used. The cells which were cultured on an Iscove's Modified Dulbecco's medium containing 10% fetal bovine serum (manufactured by Invitrogen) for 2 to 3 days and peeled off with a Tripsin-EDTA solution (manufactured by Invitrogen) were suspended on the same medium, seeded onto a black 96-well plates for FMAT at 7×10³ cells/100 μL medium/well and cultured overnight. Mouse anti-serum to be immunized or cultured supernatant of hybridoma cells was dispensed into the plate at 5 μL/well as a primary antibody, and ALEXA 647-labeled anti-mouse immunoglobulin G (H+ L) (manufactured by Molecular Probe) was dispensed at 50 μL/well as a secondary antibody, and the plate was allowed to stand for 4 hours under shading the light. Wavelength of 650 to 685 nm excited by laser beam of 633 nm He/Ne was measured by an FMAT 8100 HTS system (manufactured by Applied Biosystem).

[5] = target: T2, polypeptide encoded by the human PERP …; experiment: flow cytometry on Colo 205 cells

Binder | binding result [1] | binding result [3] | other results
B1 | binds | – | binding result [2]: binds
B2 | – | – | binding activity relative to KM3821 [1]: ~0.2 fraction of the binding activity of KM3821
B3 | binds | – | –
B4 | binds | – | –
B5 | binds | – | –
B6 | – | binds | –
B7 | – | – | binding result [4]: binds; binding result [5]: binds
B8 | – | binds | –
B9 | – | binds | –
B10 | – | binds | –
B11 | – | binds | –
